Measurements reported in patent publication US20230158117A1, “COMPOSITION FOR PREVENTION OR TREATMENT OF […] COMPRISING TRIGONAL GLUCAGON/GLP-1/GIP RECEPTOR AGONIST OR CONJUGATE THEREOF AND METHOD USING THE SAME” (HANMI PHARM. CO., LTD., priority 2020, published 2023).
Bridges are numbered along the chain shown (N, C = ends). Where no end group is shown, it is not given here. [ ]: non-standard residue; d: D form. Aib = CC(C)(N)C(=O)O

Experiments:
[1] = molecular target: human GLP-1 receptor (Homo sapiens, UniProt P43220); experiment: In vitro activity (cAMP accumulation, LANCE cAMP kit) in CHO cells expressing human GLP-1 receptor; type: cell-based; set-up: expressed in transfected cells; host or cells: Chinese hamster ovary (CHO); details: long-acting conjugate, relative potency from cAMP EC50 compared to human GLP-1
Experimental: (§1) Activities of the triple agonists and the long-acting conjugates thereof respectively prepared in Examples 1 and 2 were measured using transformed cell lines in which a GLP-1 receptor, a glucagon (GCG) receptor, and a GIP receptor were transformed by way of a method of measuring in vitro cellular activities.
(§2) The cell lines were transformed such that genes for the human GLP-1 receptor, the human GCG receptor, and the human GIP receptor were each expressed in Chinese hamster ovary (CHO), and were suitable for measuring activities of GLP-1, GCG, and GIP, respectively. Therefore, the activity for each part was measured using each of the transformed cell lines.
(§3) For measurement of the activity of each of the triple agonists and the long-acting conjugates thereof respectively prepared in Examples 1 and 2 to GLP-1, human GLP-1 was subjected to a 4-fold serial dilution from 50 nM to 0.000048 nM, and the triple agonists and the long-acting conjugates thereof respectively prepared in Examples 1 and 2 were subjected to a 4-fold serial dilution from 400 nM to 0.00038 nM. A cultured solution was removed from the cultured CHO cells in which the human GLP-1 receptor was expressed, and each of the serially diluted substances was added to the CHO cells in an amount of 5 μL. Then, a buffer solution including cAMP antibody was added thereto in an amount of 5 μL and cultured at room temperature for 15 minutes. Thereafter, a detection mix including a cell lysis buffer was added thereto in an amount of 10 μL for lysis of the cells, followed by reaction at room temperature for 90 minutes. Upon completion of the reaction, the cell lysates were applied to a LANCE cAMP kit (PerkinElmer, USA) to calculate EC50 values via accumulated cAMP, and the values were compared with each other.

[2] = molecular target: T1, human GIP receptor (Homo sapiens, UniProt P48546); experiment: In vitro activity (cAMP accumulation, LANCE cAMP kit) in CHO cells expressing human GIP receptor; type: cell-based; details: long-acting conjugate, relative potency from cAMP EC50 compared to human GIP
T1 construct: expressed in transfected cells; host or cells: Chinese hamster ovary (CHO)
T1 sequence (P48546 22-466): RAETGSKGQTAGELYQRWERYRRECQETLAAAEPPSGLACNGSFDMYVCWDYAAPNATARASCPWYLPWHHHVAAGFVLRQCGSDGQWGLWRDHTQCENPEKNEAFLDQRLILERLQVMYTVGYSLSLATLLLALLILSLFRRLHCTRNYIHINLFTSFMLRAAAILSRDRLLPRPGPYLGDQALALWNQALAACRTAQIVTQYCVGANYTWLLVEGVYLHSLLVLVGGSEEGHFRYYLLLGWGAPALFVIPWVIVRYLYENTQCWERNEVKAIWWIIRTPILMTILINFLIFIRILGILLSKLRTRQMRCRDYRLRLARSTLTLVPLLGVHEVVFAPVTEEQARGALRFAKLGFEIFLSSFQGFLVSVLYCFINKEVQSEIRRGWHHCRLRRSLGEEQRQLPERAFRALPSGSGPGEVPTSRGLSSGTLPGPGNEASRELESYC
Experimental: as §1, §2
as §3, with “activity” for “activity of each”, “GIP,” for “GLP-1,”, “GIP” for “GLP-1”

[3] = molecular target: T2, human GCG receptor (Homo sapiens, UniProt P47871); experiment: In vitro activity (cAMP accumulation, LANCE cAMP kit) in CHO cells expressing human GCG receptor; type: cell-based; details: long-acting conjugate, relative potency from cAMP EC50 compared to human GCG
T2 construct: expressed in transfected cells; host or cells: Chinese hamster ovary (CHO)
Experimental: as §1, §2
as §3, with “activity” for “activity of each”, “GCG,” for “GLP-1,”, “GCG” for “GLP-1”

[4] = system: hyperlipidemia hamsters; experiment: Therapeutic effect on hyperlipidemia in fructose-fed hyperlipidemia hamsters; type: in vivo, Golden Syrian hamsters; details: 219.2 nmol/kg, QW; comparative example; FIG. 1
Source text: Golden Syrian hamsters (hereinafter referred to as hyperlipidemia hamsters) were fed with fructose for 2 weeks to induce a hyperlipidemia model. Among the triple agonists prepared in Example 1, SEQ ID NO: 42 (1.6 nmol/kg, 3.1 nmol/kg, Q2D) was selected, and the long-acting conjugate of the triple agonist having SEQ ID NO: 42 was repeatedly administered to the hamsters induced with hyperlipidemia for 3 weeks by subcutaneous administration. As a comparative example, therapeutic effects of evolocumab (219.2 nmol/kg, QW), as a conventional therapeutic agent, on hyperlipidemia were measured.

human GLP-1 receptor, sequence (P43220 24-463): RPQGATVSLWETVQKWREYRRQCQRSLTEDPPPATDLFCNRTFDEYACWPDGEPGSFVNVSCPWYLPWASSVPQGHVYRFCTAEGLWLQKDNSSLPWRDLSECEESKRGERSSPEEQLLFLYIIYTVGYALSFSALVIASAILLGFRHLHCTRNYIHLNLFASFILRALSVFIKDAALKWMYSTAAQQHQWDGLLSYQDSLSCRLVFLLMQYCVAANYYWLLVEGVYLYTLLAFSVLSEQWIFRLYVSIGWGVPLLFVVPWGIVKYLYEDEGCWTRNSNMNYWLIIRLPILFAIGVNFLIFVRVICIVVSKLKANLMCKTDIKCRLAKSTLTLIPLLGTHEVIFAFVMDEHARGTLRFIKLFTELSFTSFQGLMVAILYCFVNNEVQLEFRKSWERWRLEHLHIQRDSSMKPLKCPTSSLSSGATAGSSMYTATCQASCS

## 22 (Y[Aib]QGTFTSDYSKCLDEKRAKEFVQWLLDHHPSSGQPPPS; bridge 16-20) [compound 22]
[1]
  In vitro activity relative to native peptide (%) vs. GLP-1: 0.1%
[2]
  In vitro activity relative to native peptide (%) vs. GIP: 0.5%
[3]
  In vitro activity relative to native peptide (%) vs. Glucagon: 0.9%

## 43 (Y[Aib]QGTFTSDYSKYLDEKRAKEFVQWLLDHHCSSGQPPPS; bridge 16-20) [compound 43]
[1]
  In vitro activity relative to native peptide (%) vs. GLP-1: 2.1%
[2]
  In vitro activity relative to native peptide (%) vs. GIP: 0.6%
[3]
  In vitro activity relative to native peptide (%) vs. Glucagon: 13.5%

## 21 (Y[Aib]QGTFTSDYSKYLDECRAKEFVQWLLDHHPSSGQPPPS; bridge 16-20) [compound 21]
[1]
  In vitro activity relative to native peptide (%) vs. GLP-1: 0.1%
[2]
  In vitro activity relative to native peptide (%) vs. GIP: 0.2%
[3]
  In vitro activity relative to native peptide (%) vs. Glucagon: 1.6%

## 42 (Y[Aib]QGTFTSDYSKYLDEKRAKEFVQWLLDHHPSSGQPPPSC; bridge 16-20) [compound 42]
[1]
  In vitro activity relative to native peptide (%) vs. GLP-1: 3.1%
[2]
  In vitro activity relative to native peptide (%) vs. GIP: 1.2%
[3]
  In vitro activity relative to native peptide (%) vs. Glucagon: 23.1%

## 50 (H[Aib]QGTFTSDYSKYLDEKRAKEFVQWLLDHHPSSGQPPPSC; bridge 16-20) [compound 50]
[1]
  In vitro activity relative to native peptide (%) vs. GLP-1: 15.4%
[2]
  In vitro activity relative to native peptide (%) vs. GIP: 0.7%
[3]
  In vitro activity relative to native peptide (%) vs. Glucagon: 6.9%

## 77 (Y[Aib]QGTFTSDYSKYLDEKAAKDFVQWLLDHHPSSGQPPPSC; bridge 16-20) [compound 77]
[1]
  In vitro activity relative to native peptide (%) vs. GLP-1: 6.7%
[2]
  In vitro activity relative to native peptide (%) vs. GIP: 6.6%
[3]
  In vitro activity relative to native peptide (%) vs. Glucagon: 1.7%

## 96 (Y[Aib]QGTFTSDYSKYLDEKRAKEFVQWLLDHCPSSGQPPPS; bridge 16-20) [compound 96]
[1]
  In vitro activity relative to native peptide (%) vs. GLP-1: 0.3%
[2]
  In vitro activity relative to native peptide (%) vs. GIP: 0.3%
[3]
  In vitro activity relative to native peptide (%) vs. Glucagon: 4.0%

B1: evolocumab (antibody, chains of the INN, looked up, V domains shown)
VH: EVQLVQSGAEVKKPGASVKVSCKASGYTLTSYGISWVRQAPGQGLEWMGWVSFYNGNTNYAQKLQGRGTMTTDPSTSTAYMELRSLRSDDTAVYYCARGYGMDVWGQGTTVTVSS
VL: ESALTQPASVSGSPGQSITISCTGTSSDVGGYNSVSWYQQHPGKAPKLMIYEVSNRPSGVSNRFSGSKSGNTASLTISGLQAEDEADYYCNSYTSTSMVFGGGTKLTVL
notes: conventional therapeutic agent for hyperlipidemia
[4]
  effects on total blood cholesterol level and blood LDL level: negligible effects
